This is an account of results in patent publication US20050203288A1 (DEUTSCHES KREBSFORSCHUNGSZENTRUM STIFUNG DES OFFENTLICHEN …, published 2005).

The labels stand for the following.
T1: Livin-β (UniProt Q96CA5-2 1-280, limits assumed)
T1 construct: the beta isoform is meant; also called Livin (beta)
T1 sequence (looked up): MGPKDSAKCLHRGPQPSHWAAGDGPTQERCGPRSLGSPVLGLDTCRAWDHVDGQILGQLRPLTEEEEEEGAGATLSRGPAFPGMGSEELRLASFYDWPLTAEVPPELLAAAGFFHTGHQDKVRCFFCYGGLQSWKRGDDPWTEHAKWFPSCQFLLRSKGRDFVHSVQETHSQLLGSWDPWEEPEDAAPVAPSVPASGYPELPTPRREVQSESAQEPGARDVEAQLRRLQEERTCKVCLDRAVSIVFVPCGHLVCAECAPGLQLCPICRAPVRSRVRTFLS

B1: peptide number 16 (peptide, not shown: large carriers)
chain: GPHSSAHDRIWLRVRGLRIILLVLRSAEIYES
notes: that construct is not described for linear peptides
B2: peptide number 54 (peptide, not shown: large carriers)
chain: GPWWKDRGVLVRLCVLRLVVGVVLRSAEIYES
notes: Mammalian two-hybrid construct not described for linear peptides
B3: peptide number 69 (peptide, not shown: large carriers)
chain: GPFPFDYPRWIMIVLLRGVLRSAEIYES
notes: as for B1
B4: peptide number 65 (peptide, not shown: large carriers)
chain: GAGLGRVIRLRIVVLRCIFLLFRVLRSAEIYES
notes: as for B1
B5: peptide number 15 (peptide, not shown: large carriers)
chain: GSGCGCFVRGRIVRIRCVILLLRVLRSAEIYES
notes: as for B1
B6: peptide number 5 (peptide, not shown: large carriers)
chain: GSRFRVFVCSLFSFLSGRGGGVVVLRSAEIYES
notes: as for B1
B7: peptide number 7 (peptide, not shown: large carriers)
chain: GPFKRCHERLVAFARCWFMWSMVLRSAEIYES
notes: as for B1
B8: peptide number 40 (peptide, not shown: large carriers)
chain: GSGCVRIRVGIVRRMLFLRFVFLVP
notes: as for B1
B9: peptide number 77 (peptide, not shown: large carriers)
chain: GPFSEHARGHVVTICRLRLLFWLLRSAEIYES
notes: as for B1
B10: peptide number 90 (peptide, not shown: large carriers)
chain: GPYPYLRILLVQKIACVRRALWVLRSAEIYES
notes: as for B1
B11: peptide number 75 (peptide, not shown: large carriers)
chain: GSRCIRRRISILFFVFRVLRSRRVLRSAEIYES
notes: as for B1

T4 sequence (O15392 whole entry): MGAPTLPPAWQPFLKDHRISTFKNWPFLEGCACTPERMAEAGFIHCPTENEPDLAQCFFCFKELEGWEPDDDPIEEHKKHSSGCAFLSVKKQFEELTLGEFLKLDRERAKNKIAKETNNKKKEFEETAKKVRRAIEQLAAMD

In the first assay the target is T2, c-IAP-1 (UniProt Q13490 1-618, limits assumed).
T2 construct: construct not described
T2 sequence (Q13490 whole entry): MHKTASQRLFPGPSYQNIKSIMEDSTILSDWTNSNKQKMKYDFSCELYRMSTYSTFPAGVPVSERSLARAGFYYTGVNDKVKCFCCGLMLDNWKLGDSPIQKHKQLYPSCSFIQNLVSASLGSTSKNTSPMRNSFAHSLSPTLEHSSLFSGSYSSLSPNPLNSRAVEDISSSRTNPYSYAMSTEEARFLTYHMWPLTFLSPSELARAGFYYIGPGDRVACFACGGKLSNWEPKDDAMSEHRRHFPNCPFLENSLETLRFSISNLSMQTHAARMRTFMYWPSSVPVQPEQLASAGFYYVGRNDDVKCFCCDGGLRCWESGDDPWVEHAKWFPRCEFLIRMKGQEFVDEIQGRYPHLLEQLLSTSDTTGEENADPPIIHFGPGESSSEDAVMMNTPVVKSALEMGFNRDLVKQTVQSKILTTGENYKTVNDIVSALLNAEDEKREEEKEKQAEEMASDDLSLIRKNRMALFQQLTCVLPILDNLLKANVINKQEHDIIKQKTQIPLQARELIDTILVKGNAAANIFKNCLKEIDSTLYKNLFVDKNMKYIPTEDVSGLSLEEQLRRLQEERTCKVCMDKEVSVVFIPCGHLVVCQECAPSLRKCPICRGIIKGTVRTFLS
Nature of the assay: yeast two-hybrid.
B1: the binding result is “no binding”.

As for B2, the binding result was “no binding”.

As to B3, the binding result is “no binding”.

Consider B4, for which the binding result is on record as “no binding”.

On to B5, for which the binding result is on record as “no binding”.

As to B6, the binding result is reported as “no binding”.

Turning to B7, the binding result is “no binding”.

For B8, the binding result is “no binding”.

With B9, the binding result was “no binding”.

For B10, the binding result is given as “no binding”.

Consider B11, for which the binding result is “no binding”.

For another assay, the target named is T3, c-IAP-2 (UniProt Q13489 1-604, limits assumed).
T3 construct: construct not described; also called c-LAP-2
T3 sequence (Q13489 whole entry): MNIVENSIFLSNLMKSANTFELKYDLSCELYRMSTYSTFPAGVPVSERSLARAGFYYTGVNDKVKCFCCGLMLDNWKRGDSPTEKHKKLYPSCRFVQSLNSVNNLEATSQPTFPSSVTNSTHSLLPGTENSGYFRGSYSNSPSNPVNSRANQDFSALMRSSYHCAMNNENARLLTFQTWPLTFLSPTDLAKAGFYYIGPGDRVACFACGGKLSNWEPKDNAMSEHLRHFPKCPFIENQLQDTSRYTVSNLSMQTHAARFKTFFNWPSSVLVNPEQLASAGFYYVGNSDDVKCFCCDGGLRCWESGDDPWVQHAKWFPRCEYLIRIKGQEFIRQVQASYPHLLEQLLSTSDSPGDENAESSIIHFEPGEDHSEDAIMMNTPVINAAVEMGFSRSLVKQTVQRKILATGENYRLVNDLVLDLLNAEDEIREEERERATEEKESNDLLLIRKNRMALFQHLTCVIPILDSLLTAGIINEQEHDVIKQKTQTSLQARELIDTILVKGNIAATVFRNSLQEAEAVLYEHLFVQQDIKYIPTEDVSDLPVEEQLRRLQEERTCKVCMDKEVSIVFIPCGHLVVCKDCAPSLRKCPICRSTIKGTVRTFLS
Nature of the assay: yeast two-hybrid.
In the case of B1, the binding result was “no binding”.

Take B2: the binding result was “no binding”.

Regarding B3, the binding result is recorded as “no binding”.

With B4, the binding result is on record as “no binding”.

Turning to B5, the binding result is recorded as “no binding”.

For the molecule B6, the binding result is “no binding”.

As to B7, the binding result is on record as “no binding”.

For B8, the binding result is reported as “no binding”.

B9: the binding result is “no binding”.

For B10, the binding result was “no binding”.

Take B11: the binding result was “no binding”.

Another assay has as its target T4, Survivin (UniProt O15392 1-142).
T4 construct: construct not described; also called surivin
As to the kind of experiment: yeast two-hybrid.
As to B1, the binding result was “no binding”.

In the case of B2, the binding result is given as “no binding”.

For B3, the binding result was “no binding”.

On to B4, for which the binding result was “no binding”.

With B5, the binding result is “no binding”.

Regarding B6, the binding result is recorded as “no binding”.

Turning to B7, the binding result was “no binding”.

For the molecule B8, the binding result is recorded as “no binding”.

Consider B9, for which the binding result is given as “no binding”.

For the molecule B10, the binding result is “no binding”.

For B11, the binding result was “no binding”.

For a further assay, the target named is T5, XIAP (UniProt P98170 1-497, limits assumed).
T5 construct: construct not described
T5 sequence (P98170 whole entry): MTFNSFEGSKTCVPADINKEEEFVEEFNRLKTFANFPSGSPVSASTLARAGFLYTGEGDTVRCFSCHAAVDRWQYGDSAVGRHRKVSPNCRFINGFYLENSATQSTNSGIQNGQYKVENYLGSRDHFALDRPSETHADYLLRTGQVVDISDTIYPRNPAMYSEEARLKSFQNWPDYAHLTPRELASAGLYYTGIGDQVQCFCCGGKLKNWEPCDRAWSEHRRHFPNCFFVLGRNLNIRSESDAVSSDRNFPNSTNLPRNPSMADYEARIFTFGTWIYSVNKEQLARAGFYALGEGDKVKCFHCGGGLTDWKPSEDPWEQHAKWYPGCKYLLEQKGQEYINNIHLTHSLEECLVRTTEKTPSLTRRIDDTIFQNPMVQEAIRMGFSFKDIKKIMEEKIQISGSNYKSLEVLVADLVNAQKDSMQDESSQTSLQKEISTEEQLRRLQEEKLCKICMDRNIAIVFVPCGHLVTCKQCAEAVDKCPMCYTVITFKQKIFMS
As to the kind of experiment: yeast two-hybrid.
Consider B1, for which the binding result is on record as “no binding”.

Take B2: the binding result is on record as “no binding”.

For B3, the binding result is “no binding”.

As to B4, the binding result is “no binding”.

As for B5, the binding result is “no binding”.

With B6, the binding result is on record as “no binding”.

On to B7, for which the binding result was “no binding”.

Turning to B8, the binding result was “no binding”.

For B9, the binding result is on record as “binds”.

B10: the binding result is on record as “no binding”.

For B11, the binding result was “no binding”.

The next assay addresses T1, Livin-β. Nature of the assay: yeast two-hybrid.
On to B1, for which the binding result is “binds”.

With B2, the binding result is given as “binds”.

As for B3, the binding result is given as “binds”.

Turning to B4, the binding result is “binds”.

Take B5: the binding result is listed as “binds”.

On to B6, for which the binding result was “binds”.

With B7, the binding result was “binds”.

For the molecule B9, the binding result is on record as “binds”.

Turning to B10, the binding result is “binds”.

As for B11, the binding result was “binds”.
